According to patent US7488590B2, “Modified peptides as therapeutic agents” (Amgen Inc., priority 1998, dated 2009):
Values joined by “and” are separate entries in the source; they are usually repeats but may differ in a detail not shown here. Equal entries are not always repeated. “Also recorded” adds a separate entry of the source. Where no end group is shown, it is not given here. Side-chain parts run from the residue outwards. maleimide = maleimide-containing PEG attached to the Cys side-chain thiol; PEG = not defined here

What was measured:
[1] = target: T1, human mpl receptor (Homo sapiens, UniProt P40238); assay: TPO in vitro bioassay: mitogenic (cell-proliferation) assay in IL-3 dependent murine 32D cells transfected with human mpl receptor; type: cell-based
T1 construct: murine 32D cells transfected with the full-length c-Mpl; expressed in transfected cells; host or cells: IL-3 dependent clone of murine 32D cells
T1 sequence (P40238 26-635): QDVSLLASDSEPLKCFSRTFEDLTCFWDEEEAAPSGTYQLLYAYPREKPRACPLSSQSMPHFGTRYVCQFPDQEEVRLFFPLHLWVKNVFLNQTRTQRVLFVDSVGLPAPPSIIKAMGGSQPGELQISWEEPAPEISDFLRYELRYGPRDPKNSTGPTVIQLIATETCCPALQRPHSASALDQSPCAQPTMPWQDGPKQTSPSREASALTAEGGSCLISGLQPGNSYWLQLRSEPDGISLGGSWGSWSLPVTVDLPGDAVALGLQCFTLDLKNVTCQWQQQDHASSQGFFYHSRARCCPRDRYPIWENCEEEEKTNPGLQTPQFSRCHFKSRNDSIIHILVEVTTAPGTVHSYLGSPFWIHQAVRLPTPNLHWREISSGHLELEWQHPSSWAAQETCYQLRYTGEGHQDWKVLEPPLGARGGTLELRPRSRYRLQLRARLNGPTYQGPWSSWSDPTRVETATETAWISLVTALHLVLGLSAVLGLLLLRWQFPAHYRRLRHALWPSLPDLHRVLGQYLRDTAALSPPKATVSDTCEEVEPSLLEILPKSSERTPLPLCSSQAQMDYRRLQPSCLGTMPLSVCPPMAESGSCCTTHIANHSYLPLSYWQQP
Procedure: Bioactivity assay. The TPO in vitro bioassay is a mitogenic assay utilizing an IL-3 dependent clone of murine 32D cells that have been transfected with human mpl receptor. This assay is described in greater detail in WO 95/26746. Cells are maintained in MEM medium containing 10% Fetal Clone II and 1 ng/ml mIL-3. Prior to sample addition, cells are prepared by rinsing twice with growth medium lacking mIL-3. An extended twelve point TPO standard curve is prepared, ranging from […]. Four dilutions, estimated to fall within the linear portion of the standard curve, (100 to 125 pg/ml), are prepared for each sample and run in triplicate. A volume of 100 μl of each dilution of sample or standard is added to appropriate wells of a 96 well microtiter plate containing 10,000 cells/well. After forty-four hours at 37° C. and 10% CO2, MTS (a tetrazolium compound which is bioreduced by cells to a formazan) is added to each well. Approximately six hours later, the optical density is read on a plate reader at 490 nm. A dose response curve (log TPO concentration vs. O.D.-Background) is generated and linear regression analysis of points which fall in the linear portion of the standard curve is performed. Concentrations of unknown test samples are determined using the resulting linear equation and a correction for the dilution factor.
The resulting peptides are readily accessible by conventional solid phase peptide synthesis methods (Merrifield (1963), J. Amer. Chem. Soc. 85: 2149) with either Fmoc or t-Boc chemistry. […] This might be due to differences in the conditions used in the two assays. […] It is interesting to note that a wide range of length is tolerated by the linker. The optimal linker between tandem peptides with the selected TMP monomers apparently is composed of 8 glycines.

[2] = target: T2, IL-1R (Homo sapiens, UniProt P14778); assay: IL-1 Receptor Binding competition assay (IGEN system); settings: 0.4 nM biotin-IL-1R + 15 nM IL-1-TAG, competitor 3 uM to 1.5 pM
T2 sequence (P14778 18-569): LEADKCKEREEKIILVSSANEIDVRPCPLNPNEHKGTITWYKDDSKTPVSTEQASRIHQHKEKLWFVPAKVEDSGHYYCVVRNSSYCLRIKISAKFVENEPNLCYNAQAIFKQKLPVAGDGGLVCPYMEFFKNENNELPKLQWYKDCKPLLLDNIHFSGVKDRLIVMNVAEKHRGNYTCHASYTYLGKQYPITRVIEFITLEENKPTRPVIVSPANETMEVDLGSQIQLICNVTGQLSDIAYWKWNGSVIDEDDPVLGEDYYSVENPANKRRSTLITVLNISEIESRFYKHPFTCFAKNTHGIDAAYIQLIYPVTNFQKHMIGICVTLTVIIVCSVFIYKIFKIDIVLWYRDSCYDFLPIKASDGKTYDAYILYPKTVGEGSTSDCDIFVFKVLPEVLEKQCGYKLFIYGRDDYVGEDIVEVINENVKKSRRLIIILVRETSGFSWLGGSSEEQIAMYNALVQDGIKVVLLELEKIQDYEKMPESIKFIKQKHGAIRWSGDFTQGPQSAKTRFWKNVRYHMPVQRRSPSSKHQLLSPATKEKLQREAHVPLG
Procedure: Characterization of Fc-IL-1 antagonist peptide and IL-1 antagonist peptide-Fc activity. IL-1 Receptor Binding competition between IL-1β, IL-1RA and Fc-conjugated IL-1 peptide sequences was carried out using the IGEN system. Reactions contained 0.4 nM biotin-IL-1R+15 nM IL-1-TAG+3 uM competitor+20 ug/ml streptavidin-conjugate beads, where competitors were IL-1RA, Fc-IL-1 antagonist, IL-1 antagonist-Fc). Competition was assayed over a range of competitor concentrations from 3 uM to 1.5 pM.

[3] = TPO-dependent cell-proliferation assay, 32D cells transfected with c-Mpl

| Substance | in vitro bioactivity (in words) [1, 3] | also measured |
| --- | --- | --- |
| 21: TMP tandem repeat with potential glycosylation motif NGS in its 8-amino acid linker (IEGPTLRQWLAARAGGGNGSGGIEGPTLRQWLAARA; TPO-MIMETIC PEPTIDES) [compound 21] | maintained high bioactivity; also recorded: activity comparable to that of the —(G)8— linked analog | – |
| IEGPTLRQWLAARA (TMP) [reference compound] | relatively low biopotency | – |
| IL-1RA: competitor in the IL-1 receptor binding competition assay | – | EC50 [2]: 2.65 nM; Ki [2]: 1.41 nM |
| peptide 13: TMP tandem repeat with a linker composed of GPNG (IEGPTLRQWLAARAGPNGIEGPTLRQWLAARA; TPO-MIMETIC PEPTIDES) | – | increase in potency as compared to the monomer ([1]; TPO-dependent cell-proliferation assay, 32D cells transfected with c-Mpl, versus TMP monomer): about 100 fold; decrease in activity versus the equivalent GGGG-linked analog ([1]; cell-proliferation assay, versus tandem repeat with 4-Gly linker): > 10 fold and 10 fold |
| peptide 16: TMP tandem repeat in which the two Trp residues were replaced by Ala (IEGPTLRQWLAARAGGGGGGGGIEGPTLRQWLAARA; TPO-MIMETIC PEPTIDES) | inactive | – |
| peptide 19: PEGylated peptide (SEQ ID NO: 3); Lys side chain in linker modified by 5 kDa PEG (IEGPTLRQWLAARAGGGK(PEG 5 kDa)GGGGIEGPTLRQWLAARA) | even higher in vitro bioactivity as compared to their unpegylated counterparts | – |
| peptide 20: PEGylated peptide (SEQ ID NO: 4); Cys side chain in linker modified by maleimide-containing PEG (IEGPTLRQWLAARAGGGC([maleimide-PEG])GGGGIEGPTLRQWLAARA; reading uncertain) | even higher in vitro bioactivity as compared to their unpegylated counterparts | – |
